Experimental data from patent US9958461B2, “Detection of protein to protein interactions” (THE GOVERNING COUNCIL OF THE UNIVERSITY OF TORONTO, priority 2013, dated 2018).

B1: CTNNA1 (protein, UniProt P35221 2-906, looked up)
Catenin alpha-1: TAVHAGNINFKWDPKSLEIRTLAVERLLEPLVTQVTTLVNTNSKGPSNKKRGRSKKAHVLAASVEQATENFLEKGDKIAKESQFLKEELVAAVEDVRKQGDLMKAAAGEFADDPCSSVKRGNMVRAARALLSAVTRLLILADMADVYKLLVQLKVVEDGILKLRNAGNEQDLGIQYKALKPEVDKLNIMAAKRQQELKDVGHRDQMAAARGILQKNVPILYTASQACLQHPDVAAYKANRDLIYKQLQQAVTGISNAAQATASDDASQHQGGGGGELAYALNNFDKQIIVDPLSFSEERFRPSLEERLESIISGAALMADSSCTRDDRRERIVAECNAVRQALQDLLSEYMGNAGRKERSDALNSAIDKMTKKTRDLRRQLRKAVMDHVSDSFLETNVPLLVLIEAAKNGNEKEVKEYAQVFREHANKLIEVANLACSISNNEEGVKLVRMSASQLEALCPQVINAALALAAKPQSKLAQENMDLFKEQWEKQVRVLTDAVDDITSIDDFLAVSENHILEDVNKCVIALQEKDVDGLDRTAGAIRGRAARVIHVVTSEMDNYEPGVYTEKVLEATKLLSNTVMPRFTEQVEAAVEALSSDPAQPMDENEFIDASRLVYDGIRDIRKAVLMIRTPEELDDSDFETEDFDVRSRTSVQTEDDQLIAGQSARAIMAQLPQEQKAKIAEQVASFQEEKSKLDAEVSKWDDSGNDIIVLAKQMCMIMMEMTDFTRGKGPLKNTSDVISAAKKIAEAGSRMDKLGRTIADHCPDSACKQDLLAYLQRIALYCHQLNICSKVKAEVQNLGGELVVSGVDSAMSLIQAAKNLMNAVVQTVKASYVASTKYQKSQGMASLNLPAVSWKMKAPEKKPLVKREKQDETQTKIKRASQKKHVNPVQALSEFKAMDSI
B2: STAM (protein, UniProt Q92783 2-540, looked up)
Signal transducing adapter …: PLFATNPFDQDVEKATSEMNTAEDWGLILDICDKVGQSRTGPKDCLRSIMRRVNHKDPHVAMQALTLLGACVSNCGKIFHLEVCSRDFASEVSNVLNKGHPKVCEKLKALMVEWTDEFKNDPQLSLISAMIKNLKEQGVTFPAIGSQAAEQAKASPALVAKDPGTVANKKEEEDLAKAIELSLKEQRQQSTTLSTLYPSTSSLLTNHQHEGRKVRAIYDFEAAEDNELTFKAGEIITVLDDSDPNWWKGETHQGIGLFPSNFVTADLTAEPEMIKTEKKTVQFSDDVQVETIEPEPEPAFIDEDKMDQLLQMLQSTDPSDDQPDLPELLHLEAMCHQMGPLIDEKLEDIDRKHSELSELNVKVMEALSLYTKLMNEDPMYSMYAKLQNQPYYMQSSGVSGSQVYAGPPPSGAYLVAGNAQMSHLQSYSLPPEQLSSLSQAVVPPSANPALPSQQTQAAYPNTMVSSVQGNTYPSQAPVYSPPPAATAAAATADVTLYQNAGPNMPQVPNYNLTSSTLPQPGGSQQPPQPQQPYSQKALL
B3: CTTN (protein, UniProt Q14247 1-550, looked up)
Src substrate cortactin: MWKASAGHAVSIAQDDAGADDWETDPDFVNDVSEKEQRWGAKTVQGSGHQEHINIHKLRENVFQEHQTLKEKELETGPKASHGYGGKFGVEQDRMDKSAVGHEYQSKLSKHCSQVDSVRGFGGKFGVQMDRVDQSAVGFEYQGKTEKHASQKDYSSGFGGKYGVQADRVDKSAVGFDYQGKTEKHESQRDYSKGFGGKYGIDKDKVDKSAVGFEYQGKTEKHESQKDYVKGFGGKFGVQTDRQDKCALGWDHQEKLQLHESQKDYKTGFGGKFGVQSERQDSAAVGFDYKEKLAKHESQQDYSKGFGGKYGVQKDRMDKNASTFEDVTQVSSAYQKTVPVEAVTSKTSNIRANFENLAKEKEQEDRRKAEAERAQRMAKERQEQEEARRKLEEQARAKTQTPPVSPAPQPTEERLPSSPVYEDAASFKAELSYRGPVSGTEPEPVYSMEAADYREASSQQGLAYATEAVYESAEAPGHYPAEDSTYDEYENDLGITAVALYDYQAAGDDEISFDPDDIITNIEMIDDGWWRGVCKGRYGLFPANYVELRQ
B4: TNK2 (protein, UniProt Q07912 1-1038, looked up)
Activated CDC42 kinase 1: MQPEEGTGWLLELLSEVQLQQYFLRLRDDLNVTRLSHFEYVKNEDLEKIGMGRPGQRRLWEAVKRRKALCKRKSWMSKVFSGKRLEAEFPPHHSQSTFRKTSPAPGGPAGEGPLQSLTCLIGEKDLRLLEKLGDGSFGVVRRGEWDAPSGKTVSVAVKCLKPDVLSQPEAMDDFIREVNAMHSLDHRNLIRLYGVVLTPPMKMVTELAPLGSLLDRLRKHQGHFLLGTLSRYAVQVAEGMGYLESKRFIHRDLAARNLLLATRDLVKIGDFGLMRALPQNDDHYVMQEHRKVPFAWCAPESLKTRTFSHASDTWMFGVTLWEMFTYGQEPWIGLNGSQILHKIDKEGERLPRPEDCPQDIYNVMVQCWAHKPEDRPTFVALRDFLLEAQPTDMRALQDFEEPDKLHIQMNDVITVIEGRAENYWWRGQNTRTLCVGPFPRNVVTSVAGLSAQDISQPLQNSFIHTGHGDSDPRHCWGFPDRIDELYLGNPMDPPDLLSVELSTSRPPQHLGGVKKPTYDPVSEDQDPLSSDFKRLGLRKPGLPRGLWLAKPSARVPGTKASRGSGAEVTLIDFGEEPVVPALRPCAPSLAQLAMDACSLLDETPPQSPTRALPRPLHPTPVVDWDARPLPPPPAYDDVAQDEDDFEICSINSTLVGAGVPAGPSQGQTNYAFVPEQARPPPPLEDNLFLPPQGGGKPPSSAQTAEIFQALQQECMRQLQAPAGSPAPSPSPGGDDKPQVPPRVPIPPRPTRPHVQLSPAPPGEEETSQWPGPASPPRVPPREPLSPQGSRTPSPLVPPGSSPLPPRLSSSPGKTMPTTQSFASDPKYATPQVIQAPGPRAGPCILPIVRDGKKVSSTHYYLLPERPSYLERYQRFLREAQSPEEPTPLPVPLLLPPPSTPAPAAPTATVRPMPQAALDPKANFSTNNSNPGARPPPPRATARLPQRGCPGDGPEAGRPADKIQMAMVHGVTTEECQAALQCHGWSVQRAAQYLKVEQLFGLGLRPRGECHKVLEMFDWNLEQAGCHLLGSWGPAHHKR
B5: RIN1 (protein, UniProt Q13671 1-783, looked up)
Ras and Rab interactor 1: MESPGESGAGSPGAPSPSSFTTGHLAREKPAQDPLYDVPNASGGQAGGPQRPGRVVSLRERLLLTRPVWLQLQANAAAALHMLRTEPPGTFLVRKSNTRQCQALCMRLPEASGPSFVSSHYILESPGGVSLEGSELMFPDLVQLICAYCHTRDILLLPLQLPRAIHHAATHKELEAISHLGIEFWSSSLNIKAQRGPAGGPVLPQLKARSPQELDQGTGAALCFFNPLFPGDLGPTKREKFKRSFKVRVSTETSSPLSPPAVPPPPVPVLPGAVPSQTERLPPCQLLRRESSVGYRVPAGSGPSLPPMPSLQEVDCGSPSSSEEEGVPGSRGSPATSPHLGRRRPLLRSMSAAFCSLLAPERQVGRAAAALMQDRHTAAGQLVQDLLTQVRAGPEPQELQGIRQALSRARAMLSAELGPEKLLSPKRLEHVLEKSLHCSVLKPLRPILAARLRRRLAADGSLGRLAEGLRLARAQGPGAFGSHLSLPSPVELEQVRQKLLQLLRTYSPSAQVKRLLQACKLLYMALRTQEGEGAGADEFLPLLSLVLAHCDLPELLLEAEYMSELLEPSLLTGEGGYYLTSLSASLALLSGLGQAHTLPLSPVQELRRSLSLWEQRRLPATHCFQHLLRVAYQDPSSGCTSKTLAVPPEASIATLNQLCATKFRVTQPNTFGLFLYKEQGYHRLPPGALAHRLPTTGYLVYRRAEWPETQGAVTEEEGSGQSEARSRGEEQGCQGDGDAGVKASPRDIREQSETTAEGGQGQAQEGPAQPGEPEAEGSRAAEE
B6: LAT (protein, UniProt O43561 1-262, looked up)
Linker for activation of …: MEEAILVPCVLGLLLLPILAMLMALCVHCHRLPGSYDSTSSDSLYPRGIQFKRPHTVAPWPPAYPPVTSYPPLSQPDLLPIPRSPQPLGGSHRTPSSRRDSDGANSVASYENEGASGIRGAQAGWGVWGPSWTRLTPVSLPPEPACEDADEDEDDYHNPGYLVVLPDSTPATSTAAPSAPALSTPGIRDSAFSMESIDDYVNVPESGESAEASLDGSREYVNVSQELHPGAAKTEPAALSSQEAEEVEEEGAPDYENLQELN
B7: CSK (protein, UniProt P41240 2-450, looked up)
Tyrosine-protein kinase CSK: SAIQAAWPSGTECIAKYNFHGTAEQDLPFCKGDVLTIVAVTKDPNWYKAKNKVGREGIIPANYVQKREGVKAGTKLSLMPWFHGKITREQAERLLYPPETGLFLVRESTNYPGDYTLCVSCDGKVEHYRIMYHASKLSIDEEVYFENLMQLVEHYTSDADGLCTRLIKPKVMEGTVAAQDEFYRSGWALNMKELKLLQTIGKGEFGDVMLGDYRGNKVAVKCIKNDATAQAFLAEASVMTQLRHSNLVQLLGVIVEEKGGLYIVTEYMAKGSLVDYLRSRGRSVLGGDCLLKFSLDVCEAMEYLEGNNFVHRDLAARNVLVSEDNVAKVSDFGLTKEASSTQDTGKLPVKWTAPEALREKKFSTKSDVWSFGILLWEIYSFGRVPYPRIPLKDVVPRVEKGYKMDAPDGCPPAVYEVMKNCWHLDAAMRPSFLQLREQLEHIKTHELHL

target: T1, EGFR-Wt (Homo sapiens, UniProt P00533); assay: MaMTH EGFR-interactor screen, lentiviral preys against EGFR-wildtype bait (interaction score); assay type: cell-based; settings: MaMTH interaction score of prey with EGFR-Wt bait, mean
T1 construct: with the advantage of testing full-length integral membrane proteins; (GGGGS)2 linker-Cub (human ubiquitin aa 35-76)-GAL4(1-147)-mNFkB(364-550) (C); expressed in transfected cells
Experimental: (§1) After lentivirus harvest, target cells (stable 5×GAL4UAS-luciferase reporter-HEK293T cells) were infected at a multiplicity of infection (MOI) of around 0.3-0.4 to ensure single copy integration per cell. Cells were selected in puromycin for at least 48 h and transfected with either EGFR-wildtype or EGFR-L858R baits in triplicates. 24 h after transfection, cells were lysed and luciferase assays performed. On each set of interaction assays, various negative controls were included. To calculate a MaMTH-interaction scores, negative controls were averaged and the fold-change of luciferase activity compared to the averaged controls was calculated and defined as the interaction score.
(§2) Each set of experiments contains a defined set of negative controls in at least three replicates. Negative controls were chosen as such that there is a range of controls showing high-background luciferase activity (normally cytosolic proteins: Fabp5, Pex19) as well as medium-background luciferase activity (membrane-bound interactors: Pex7, GABBR2). Negative controls were averaged and the fold-change of luciferase activity was calculated. Using this method, we have a stringent cut-off and chose an interaction score >1 to be interacting proteins.
(§3) Our cut-off of 1 is based on fold-change difference in luciferase activity over averaged negative controls. Negative controls include cytosolic preys (which tend to promiscuously bind to many proteins), plasma membrane- and peroxisomal-prey proteins. In general, we chose stringent conditions by testing preys that tend to have high luciferase background with any bait tested, in order to generate high-confidence interaction data. […] Phosphorylated tyrosine residues on the receptor are typically docking sites for downstream cytoplasmic targets and recognized through SH2 or PTB domains^43.

Row | Molecule | EGFR-Wt mean
1 | B1 | 2.11
2 | B2 | 0.56
3 | B3 | 33.81
4 | B4 | 1.51
5 | B5 | 2.19
6 | B6 | 29.54
7 | B7 | 8.40

system: EGFR-Wt; assay: as above; assay type: cell-based, human; settings: ratio of EGFR-Wt mean to EGFR-L858R mean interaction score
Experimental: as §1, §2, §3

Row | Molecule | Wt/L858R
8 | B1 | 1.58
9 | B2 | 0.23
10 | B3 | 1.53
11 | B4 | 1.16
12 | B5 | 1.19
13 | B6 | 1.61
14 | B7 | 1.43

target: T2, EGFR-L858R (Homo sapiens, UniProt P00533, L858R); assay: MaMTH EGFR-interactor screen, lentiviral preys against EGFR-L858R bait (interaction score); assay type: cell-based; settings: MaMTH interaction score of prey with EGFR-L858R bait
T2 construct: with the advantage of testing full-length integral membrane proteins; (GGGGS)2 linker-Cub (human ubiquitin aa 35-76)-GAL4(1-147)-mNFkB(364-550) (C); expressed in transfected cells
Experimental: as §1, §2, §3

Row | Molecule | EGFR-L858R mean
15 | B1 | 1.34
16 | B2 | 2.49
17 | B3 | 22.11
18 | B4 | 1.30
19 | B5 | 1.84
20 | B6 | 18.39
21 | B7 | 5.86
